IC50 of cytotoxicity in MOLM-13 cells, 96 h, resazurin and Kd data for two molecules are collected here from patent publication US20250049939A1, “NOVEL FLT3 ANTIBODIES AND ANTIBODY-DRUG-CONJUGATES BASED THEREON, THERAPEUTIC METHODS AND USES THEREOF IN COMBINATION WITH TYROSINE KINASE INHIBITORS” (TUBULIS GmbH, priority 2021, published 2025).

What is called Kd is the constant that tells how readily two partners part at equilibrium.

The target of experiment [1] is T1, FLT3 as expressed on FLT3 positive human leukemia and lymphoma cell lines (e.g. MOLM-13) (human) (UniProt P36888).
T1 sequence (looked up): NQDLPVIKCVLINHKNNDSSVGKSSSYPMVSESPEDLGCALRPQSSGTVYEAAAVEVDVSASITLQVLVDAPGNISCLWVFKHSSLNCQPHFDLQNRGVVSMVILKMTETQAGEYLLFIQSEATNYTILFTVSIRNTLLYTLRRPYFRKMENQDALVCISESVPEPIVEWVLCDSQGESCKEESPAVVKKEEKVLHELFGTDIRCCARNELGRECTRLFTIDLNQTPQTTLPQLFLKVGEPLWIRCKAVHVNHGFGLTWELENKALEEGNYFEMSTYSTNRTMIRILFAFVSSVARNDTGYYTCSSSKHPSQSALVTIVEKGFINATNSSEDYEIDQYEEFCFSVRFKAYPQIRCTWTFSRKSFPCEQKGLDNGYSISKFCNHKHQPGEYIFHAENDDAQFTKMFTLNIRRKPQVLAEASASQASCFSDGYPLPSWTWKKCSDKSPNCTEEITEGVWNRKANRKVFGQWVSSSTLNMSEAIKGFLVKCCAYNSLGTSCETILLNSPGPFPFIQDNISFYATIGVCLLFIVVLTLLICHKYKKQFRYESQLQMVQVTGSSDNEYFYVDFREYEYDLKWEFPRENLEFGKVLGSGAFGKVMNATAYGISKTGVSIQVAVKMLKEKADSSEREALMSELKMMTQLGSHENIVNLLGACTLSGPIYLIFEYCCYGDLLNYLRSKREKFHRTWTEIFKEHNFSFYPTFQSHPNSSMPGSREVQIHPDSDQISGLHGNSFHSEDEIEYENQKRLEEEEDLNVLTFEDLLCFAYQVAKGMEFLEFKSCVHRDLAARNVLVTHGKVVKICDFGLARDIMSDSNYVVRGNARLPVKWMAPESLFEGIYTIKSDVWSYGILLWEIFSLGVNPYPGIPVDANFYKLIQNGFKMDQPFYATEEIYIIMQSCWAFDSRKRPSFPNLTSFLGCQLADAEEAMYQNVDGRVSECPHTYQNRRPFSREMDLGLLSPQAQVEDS
Put plainly: cell-based or functional assay.

Experiment [2] addresses recombinant human FLT3 protein (human) (UniProt P36888). In words: ELISA on recombinant human FLT3, normalized to BSA control. A general note: ELISA stands for enzyme-linked immunosorbent assay.

B1: deglycosylated 20D9-ADC (antibody, V domains shown)
VH: DVMLVESGGGLVQPGRSLKLSCVASGFTFNNYWMTWIRQAPGKGLEWIASITKTGGGTYYPDSVKGRFTISRDNAKSTLYLQMNSLRSEDTATYYCTTLQQLGVMDAWGQGASVTVSS
VL: DVQMTQSPSVLSASVGDRITLNCKASQNINKELNWYQQKLGEAPKLLIYNTNNLQTGIPSRFSGSGSGTDYTLTISSLQPEDVATYFCFQHKSWPLTFGSGTKLEIKR
Take B1: in experiment [1], the IC50 of cytotoxicity in MOLM-13 cells, 96 h, resazurin amounted to 0.474 µg/mL.

B2: 19H5 chimeric anti-FLT3 monoclonal antibody (antibody, V domains shown)
VH: MVQPSQTLSLTCTVSGFSLTSYNVNWVRQPPGKGLEWIGAMWRGGGTDYNPALKSRLSISRDTSKSQVFLKMNRLQTEDTAIYFCTRGFGDYWGQGVMVTVSS
VL: DVQMTQSPSSMSASLGDRVTFTCQASQDIGNNLIYFQQKPGKSPRRMICCATNLAHGVPSRFSGSRSGSDYSLTLVSLESEDVADYHCLQYEHYPRTFGGGTKLELKR
Regarding B2, in experiment [2], the equilibrium dissociation constant (Kd) was 0.134 µg/mL.
